Reference: patent US8492147B2, “Method of inducing the differentiation of embryonic stem cells into nerve by serum-free suspension culture” (Riken, priority 2004, dated 2013)

Experiments:
[1] = system: Mouse ES cells (EB5 cells); assay: SFEB culture with retinoic acid, Bf1+ cells and RT-PCR of rostral/caudal markers; type: cell-based; settings: RA 0.2 μM after 3-5 days of the culture
Method: Specifically, As ES cells, those cultured for maintenance by conventional culture method without feeder cells supplemented with 1% fetal calf serum, 10% KSR (Knockout Serum Replacement), and LIF were used for SFEB method (see, Neuron, Vol. 28: 31-40 (2000)). Next, after ES cell colonies were subjected to trypsin/EDTA treatment to make single cells, 10 ml of the cells (6×10^4 cells/ml) were seeded on cell non-adhesive culture plastic plate (diameter: 10 cm), and incubated at 37° C., 5% CO2 for five days. As medium, differentiation medium composed of 500 ml of GMEM, 5 ml of 100×NEAA, 5 ml of 100×pyruvate, and 0.5 ml of 1×10^−1 M 2-mercaptoethanol, and 5% KSR (Knockout Serum Replacement). […]
Mouse ES cells (EB5 cells) were subjected to serum-free floating culture by the SFEB method in the same manner as Example 1 for 5 days, after which they were dispersed by trypsin/EDTA treatment, seeded to a cell culture slide coated with poly-D lysine/laminin, and cultured in a differentiation medium (as described above) for 2 days, and then in a GMEM+N2 medium (composition: GMEM+1×N-2 Supplement (manufactured by Gibco, a supply of ×100 concentration was used after dilution), 0.1 mM non-essential amino acid, 1 mM sodium pyruvate, 0.1 mM 2-mercaptoethanol) for 3 days. The finally obtained differentiated cells were analyzed by the fluorescent antibody method using anti-Bf1 antibody. […]

[2] = system: ES cells; assay: BMP treatment of ES cells cultured by SFEB method; type: cell-based
Source text: (§1) It is interesting to elucidate what kinds of signaling regulate this difference by analyzing RNA profile for them.

[3] = system: ES cells; assay: SDIA method on PA6 cells with BMP4, Math1 and cerebellar granule cell markers; type: cell-based
Source text: Although there have been no reports on differentiation induction of ES cells into cerebellar tissue, the present inventors have already reported that Math1 is induced by treating neurons differentiated by the SDIA method with BMP4 (see Proc. Natl. Acad. Sci. USA, 100, 5828-5833). […] Therefore, the Math1-positive cells induced by the SDIA method were postulated not to be cerebellar granule cells, but to be Math1-positive cells of the pons, medulla oblongata, spinal cord and the like.

[4] = system: ES cells; assay: BMP treatment of ES cells cultured on collagen-coated dish; type: cell-based; settings: BMP treatment (5 nM)
Source text: as §1

[5] = system: EB5 cells; assay: SFEB culture, differentiation into retinal precursor cells (Rx, rhodopsin immunostaining); type: cell-based, mouse
Method: EB5 cells were subjected to serum-free floating culture by the SFEB method for 5 days, after which cell clamps as is were seeded to a cell culture slide coated with poly-D lysine/laminin/fibronectin, and cultured while in the KSR-containing differentiation medium for the SFEB method for a total of 8 days. Immunostaining was performed using an internally prepared antibody against Rx, a marker specific for retinal precursor cells; an Rx-positive cell population was identified in about 15-30% of the cell clamps (colonies). By treatment with 5% fetal calf serum or 100 ng/ml activin (manufactured by R&D) or treatment with 3-30 nM Shh during 3 to 5 days after the start of cultivation, the Rx positivity rate of colonies increased to 50% (about 2 times). […] Also, these cells were subjected to adhesion culture for a long time (a total of 14 to 18 days); a plurality of cells positive for the visual cell marker Crx or rhodopsin were identified in 1-5% of the colonies.

[6] = system: ES cells; assay: SFEB culture then adhesion culture with Wnt3a, dorsal/ventral telencephalon markers; type: cell-based, mouse
Method: Mouse ES cells (EB5 cells) were subjected to serum-free floating culture by the SFEB method in the same manner as Example 1 for 5 days, after which they were dispersed by trypsin/EDTA treatment, seeded to a cell culture slide coated with poly-D lysine/laminin, and cultured in a differentiation medium (as described above) for 2 days, and then in a GMEM+N2 medium (composition: GMEM+1×N-2 Supplement (manufactured by Gibco, a supply of ×100 concentration was used after dilution), 0.1 mM non-essential amino acid, 1 mM sodium pyruvate, 0.1 mM 2-mercaptoethanol) for 3 days. The finally obtained differentiated cells were analyzed by the fluorescent antibody method using anti-Bf1 antibody. For comparison, neural differentiation from ES cells was performed by the SDIA method, and the cells obtained were analyzed by the fluorescent antibody method in the same manner.
ES cells were cultured by the SFEB method in the same manner as Examples 4 and 6 for 5 days to induce neural differentiation, subsequently dispersed by trypsin/EDTA treatment, seeded to a cell culture slide coated with poly-D lysine/laminin, and cultured. […] In the case of 50 ng/ml Wnt3a, about 75% of the Bf1-positive cells expressed the dorsal marker Pax6, and about 10 percent of them expressed Emx1, a marker of cerebrocortical precursor cells.

[7] = system: Sox1/GFP-mES cells; assay: SFEB serum-free floating culture of Sox1/GFP-mES cells, frequency of Sox1-GFP+ cells (FACS); type: cell-based, mouse; settings: for experiment-to-experiment variation of GFP expression value: initial cell density 5×10^4 cell/ml, without addition varied by about 10-15%
Method: Specifically, As ES cells, those cultured for maintenance by conventional culture method without feeder cells supplemented with 1% fetal calf serum, 10% KSR (Knockout Serum Replacement), and LIF were used for SFEB method (see, Neuron, Vol. 28: 31-40 (2000)). Next, after ES cell colonies were subjected to trypsin/EDTA treatment to make single cells, 10 ml of the cells (6×10^4 cells/ml) were seeded on cell non-adhesive culture plastic plate (diameter: 10 cm), and incubated at 37° C., 5% CO2 for five days. As medium, differentiation medium composed of 500 ml of GMEM, 5 ml of 100×NEAA, 5 ml of 100×pyruvate, and 0.5 ml of 1×10^−1 M 2-mercaptoethanol, and 5% KSR (Knockout Serum Replacement).
Next, For quantitative analysis, mouse ES cells wherein GFP (green fluorescent protein) was knocked in the nerve marker Sox1 gene by homologous recombination (hereinafter abbreviated as Sox1/GFP-mES cells as required; see Nature Biotechnology Vol. 21: 183-186 (2003)) were cultured by the SFEB method. The culture conditions were the same as those for the SFEB method described in 1.1. above except that Sox1/GFP-mES cells were used as the ES cells.
Next, to further improve the efficiency of differentiation into nervous system cells by the SFEB method, the present inventors attempted to determine whether or not the efficiency of differentiation into nervous system cells was improved by inhibiting Nodal, Wnt, and BMP, which are promoters of differentiation into mesodermal cells.
Next, we tested effects of Nodal and Wnt by adding Nodal protein (manufactured by R&D) and Wnt3a protein (manufactured by R&D) to SFEB culture.

[8] = Wnt3a 5 ng/ml or 50 ng/ml from Day 6, total 10 days
[9] = Nodal protein 5 μg/ml, Wnt3a protein 50 ng/ml, during days 0-5 and days 2-5

CC1=C(/C=C/C(C)=C/C=C/C(C)=C/C(=O)O)C(C)(C)CCC1 [RA, retinoic acid]
Bf1+ cells [1]: < 1%

BMP4: BMP signal promoter, manufactured by R&D
neural differentiation [2]: completely suppresses neural differentiation | cell type produced ([2]; not flk1+ cells): efficiently produces E-cad^+/Oct3/4^− cells | Ki67 in the Math1-positive cells ([3]; 0.5-1 nM BMP4): negative | expression of Pax6, Zic1 in the Math1-positive cells ([3]; 0.5-1 nM BMP4, most of these cells): did not express | cell type produced [4]: induces efficient differentiation into flk1^+ lateral plate mesoderm

B1: activin: TGFβ family protein, Nodal signal promoter, manufactured by R&D (protein, UniProt P08476 311-426, looked up)
Inhibin beta A chain: GLECDGKVNICCKKQFFVSFKDIGWNDWIIAPSGYHANYCEGECPSHIAGTSGSSLSFHSTVINHYRMRGHSPFANLKSCCVPTKLRPMSMLYYDDGQNIIKKDIQNMIVEECGCS
modifications: Inhibin beta A chain activin A assumed
notes: TGFβ family protein, Nodal signal promoter, manufactured by R&D
Rx positivity rate of colonies ([5]; 5% fetal calf serum or 100 ng/ml activin or 3-30 nM Shh during 3 to 5 days, total 8 days, without: about 15-30%): 50% | increase of Rx positivity rate of colonies ([5]; same treatments, versus no treatment): about 2 times

B2: Wnt3a: Wnt3a protein (manufactured by R&D), Wnt signal promoter (protein, UniProt P56704 19-352, looked up)
Protein Wnt-3a: SYPIWWSLAVGPQYSSLGSQPILCASIPGLVPKQLRFCRNYVEIMPSVAEGIKIGIQECQHQFRGRRWNCTTVHDSLAIFGPVLDKATRESAFVHAIASAGVAFAVTRSCAEGTAAICGCSSRHQGSPGKGWKWGGCSEDIEFGGMVSREFADARENRPDARSAMNRHNNEAGRQAIASHMHLKCKCHGLSGSCEVKTCWWSQPDFRAIGDFLKDKYDSASEMVVEKHRESRGWVETLRPRYTYFKVPTERDLVYYEASPNFCEPNPETGSFGTRDRTCNVSSHGIDGCDLLCCGRGHNARAERRREKCRCVFHWCCYVSCQECTRVYDVHTCK
Bf1-positive cells expressing Emx1 ([6]; 50 ng/ml Wnt3a): about 10% | Bf1-positive cells expressing dorsal marker Pax6 ([6]; 50 ng/ml Wnt3a): about 75% | number of cells positive for both NRx2.1 and Bf1 (ventral telencephalon markers) [6, 8]: decreased remarkably | number of cells positive for both Pax6 and Bf1 (dorsal telencephalon markers) [6, 8]: increased | frequency of Sox1-GFP+ cells [7, 9]: significantly suppress

B3: Nodal protein: Nodal protein (manufactured by R&D), Nodal signal promoter (protein, UniProt Q96S42 238-347, looked up)
Nodal homolog: HHLPDRSQLCRKVKFQVDFNLIGWGSWIIYPKQYNAYRCEGECPNPVGEEFHPTNHAYIQSLLKRYQPHRVPSTCCAPVKTKPLSMLYVDNGRVLLDHHKDMIVEECGCL
frequency of Sox1-GFP+ cells [7, 9]: significantly suppress

B4: Lefty-A: anti-Nodal reagent (Nodal signal inhibitor), manufactured by R&D Company (protein, UniProt O00292 77-366, looked up)
Left-right determination …: RFSQSFREVAGRFLASEASTHLLVFGMEQRLPPNSELVQAVLRLFQEPVPKAALHRHGRLSPRSAQARVTVEWLRVRDDGSNRTSLIDSRLVSVHESGWKAFDVTEAVNFWQQLSRPRQPLLLQVSVQREHLGPLASGAHKLVRFASQGAPAGLGEPQLELHTLDLRDYGAQGDCDPEAPMTEGTRCCRQEMYIDLQGMKWAKNWVLEPPGFLAYECVGTCQQPPEALAFNWPFLGPRQCIASETASLPMIVSIKEGGRTRPQVVSLPNMRVQKCSCASDGALVPRRLQP
frequency of Sox1-GFP+ cells ([7]; added on Day 0 of SFEB, 5 μg/ml Lefty-A, 1 μg/ml Dkk1, 1.5 μg/ml BMPRIA-Fc receptobody): evaluate the frequency of Sox1-GFP^+ cells | experiment-to-experiment variation of GFP expression value [7]: stabilized the value of GFP expression

B5: Dkk1: anti-Wnt reagent (Wnt signal inhibitor), manufactured by R&D Company (protein, UniProt O94907 32-266, looked up)
Dickkopf-related protein 1: TLNSVLNSNAIKNLPPPLGGAAGHPGSAVSAAPGILYPGGNKYQTIDNYQPYPCAEDEECGTDEYCASPTRGGDAGVQICLACRKRRKRCMRHAMCCPGNYCKNGICVSSDQNHFRGEIEETITESFGNDHSTLDGYSRRTTLSSKMYHTKGQEGSVCLRSSDCASGLCCARHFWSKICKPVLKEGQVCTKHRRKGSHGLEIFQRCYCGEGLSCRIQKDHHQASNSSRLHTCQRH
experiment-to-experiment variation of GFP expression value [7]: stabilized the value of GFP expression
